T1: Extracellular domain (ECD) of the canine IL-4 receptor alpha-V5 epitope-AviTag-His Tag (canine)
T1 construct: monomeric form isolated by size exclusion; also called canine IL-4RA-V5-Avi-His; canine IL-4RA
T1 chain: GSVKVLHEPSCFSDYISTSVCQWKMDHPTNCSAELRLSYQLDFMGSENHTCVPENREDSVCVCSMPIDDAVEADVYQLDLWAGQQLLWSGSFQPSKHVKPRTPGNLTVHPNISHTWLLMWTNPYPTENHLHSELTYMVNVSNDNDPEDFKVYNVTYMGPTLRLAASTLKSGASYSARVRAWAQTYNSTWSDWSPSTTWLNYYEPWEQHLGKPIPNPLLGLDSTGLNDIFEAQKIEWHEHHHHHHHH

B1: TB640_005 Fab-SASA VH-K103I (Fab, V domains shown)
VH: EVQLVESGGDLVKPGGSLRLSCVASGFTFRDYAMTWVRQAPGKGLQWVSLISGSGGKTYYADAVKGRFTISRDNAKNTLYLQMNSLRAEDTAVYYCAVDRLTITIRPQYYGLWVWGQGTLVTVSS
VL: DIVMTQTPLSLSVSPGETASISCRSSQSLLYSIGYNYLDWYLQKPGQSPQGLIYLGSKRASGVPDRFSGSGSGTDFTLRISRVEANDTGVYYCMQGLQSPLTFGQGTKLEIKR
notes: not shown: SASA tag then His-tag
B2: TB640_005 Fab-SASA VH-S52N (Fab, V domains shown)
VH: EVQLVESGGDLVKPGGSLRLSCVASGFTFRDYAMTWVRQAPGKGLQWVSLINGSGGKTYYADAVKGRFTISRDNAKNTLYLQMNSLRAEDTAVYYCAVDRLTKTIRPQYYGLWVWGQGTLVTVSS
VL: DIVMTQTPLSLSVSPGETASISCRSSQSLLYSIGYNYLDWYLQKPGQSPQGLIYLGSKRASGVPDRFSGSGSGTDFTLRISRVEANDTGVYYCMQGLQSPLTFGQGTKLEIKR
notes: as for B1
B3: TB640_005 Fab-SASA VH-L101K (Fab, V domains shown)
VH: EVQLVESGGDLVKPGGSLRLSCVASGFTFRDYAMTWVRQAPGKGLQWVSLISGSGGKTYYADAVKGRFTISRDNAKNTLYLQMNSLRAEDTAVYYCAVDRKTKTIRPQYYGLWVWGQGTLVTVSS
VL: DIVMTQTPLSLSVSPGETASISCRSSQSLLYSIGYNYLDWYLQKPGQSPQGLIYLGSKRASGVPDRFSGSGSGTDFTLRISRVEANDTGVYYCMQGLQSPLTFGQGTKLEIKR
notes: as for B1
B4: TB640_005 Fab-SASA VH-T28N (Fab, V domains shown)
VH: EVQLVESGGDLVKPGGSLRLSCVASGFNFRDYAMTWVRQAPGKGLQWVSLISGSGGKTYYADAVKGRFTISRDNAKNTLYLQMNSLRAEDTAVYYCAVDRLTKTIRPQYYGLWVWGQGTLVTVSS
VL: DIVMTQTPLSLSVSPGETASISCRSSQSLLYSIGYNYLDWYLQKPGQSPQGLIYLGSKRASGVPDRFSGSGSGTDFTLRISRVEANDTGVYYCMQGLQSPLTFGQGTKLEIKR
notes: as for B1
B5: TB640_005 Fab-SASA VL-A60L (Fab, V domains shown)
VH: EVQLVESGGDLVKPGGSLRLSCVASGFTFRDYAMTWVRQAPGKGLQWVSLISGSGGKTYYADAVKGRFTISRDNAKNTLYLQMNSLRAEDTAVYYCAVDRLTKTIRPQYYGLWVWGQGTLVTVSS
VL: DIVMTQTPLSLSVSPGETASISCRSSQSLLYSIGYNYLDWYLQKPGQSPQGLIYLGSKRLSGVPDRFSGSGSGTDFTLRISRVEANDTGVYYCMQGLQSPLTFGQGTKLEIKR
notes: as for B1
B6: TB640_005 Fab-SASA VH-K103R (Fab, V domains shown)
VH: EVQLVESGGDLVKPGGSLRLSCVASGFTFRDYAMTWVRQAPGKGLQWVSLISGSGGKTYYADAVKGRFTISRDNAKNTLYLQMNSLRAEDTAVYYCAVDRLTRTIRPQYYGLWVWGQGTLVTVSS
VL: DIVMTQTPLSLSVSPGETASISCRSSQSLLYSIGYNYLDWYLQKPGQSPQGLIYLGSKRASGVPDRFSGSGSGTDFTLRISRVEANDTGVYYCMQGLQSPLTFGQGTKLEIKR
notes: as for B1
B7: TB640_005 Fab-SASA VH-L101M (Fab, V domains shown)
VH: EVQLVESGGDLVKPGGSLRLSCVASGFTFRDYAMTWVRQAPGKGLQWVSLISGSGGKTYYADAVKGRFTISRDNAKNTLYLQMNSLRAEDTAVYYCAVDRMTKTIRPQYYGLWVWGQGTLVTVSS
VL: DIVMTQTPLSLSVSPGETASISCRSSQSLLYSIGYNYLDWYLQKPGQSPQGLIYLGSKRASGVPDRFSGSGSGTDFTLRISRVEANDTGVYYCMQGLQSPLTFGQGTKLEIKR
notes: as for B1
B8: TB640_005 Fab-SASA VH-V114K (Fab, V domains shown)
VH: EVQLVESGGDLVKPGGSLRLSCVASGFTFRDYAMTWVRQAPGKGLQWVSLISGSGGKTYYADAVKGRFTISRDNAKNTLYLQMNSLRAEDTAVYYCAVDRLTKTIRPQYYGLWKWGQGTLVTVSS
VL: DIVMTQTPLSLSVSPGETASISCRSSQSLLYSIGYNYLDWYLQKPGQSPQGLIYLGSKRASGVPDRFSGSGSGTDFTLRISRVEANDTGVYYCMQGLQSPLTFGQGTKLEIKR
notes: as for B1
B9: TB640_005 Fab-SASA VH-V114G (Fab, V domains shown)
VH: EVQLVESGGDLVKPGGSLRLSCVASGFTFRDYAMTWVRQAPGKGLQWVSLISGSGGKTYYADAVKGRFTISRDNAKNTLYLQMNSLRAEDTAVYYCAVDRLTKTIRPQYYGLWGWGQGTLVTVSS
VL: DIVMTQTPLSLSVSPGETASISCRSSQSLLYSIGYNYLDWYLQKPGQSPQGLIYLGSKRASGVPDRFSGSGSGTDFTLRISRVEANDTGVYYCMQGLQSPLTFGQGTKLEIKR
notes: as for B1
B10: TB640_005 Fab-SASA VH-V114Q (Fab, V domains shown)
VH: EVQLVESGGDLVKPGGSLRLSCVASGFTFRDYAMTWVRQAPGKGLQWVSLISGSGGKTYYADAVKGRFTISRDNAKNTLYLQMNSLRAEDTAVYYCAVDRLTKTIRPQYYGLWQWGQGTLVTVSS
VL: DIVMTQTPLSLSVSPGETASISCRSSQSLLYSIGYNYLDWYLQKPGQSPQGLIYLGSKRASGVPDRFSGSGSGTDFTLRISRVEANDTGVYYCMQGLQSPLTFGQGTKLEIKR
notes: as for B1
B11: TB640_005 Fab-SASA VH-Y110R (Fab, V domains shown)
VH: EVQLVESGGDLVKPGGSLRLSCVASGFTFRDYAMTWVRQAPGKGLQWVSLISGSGGKTYYADAVKGRFTISRDNAKNTLYLQMNSLRAEDTAVYYCAVDRLTKTIRPQYRGLWVWGQGTLVTVSS
VL: DIVMTQTPLSLSVSPGETASISCRSSQSLLYSIGYNYLDWYLQKPGQSPQGLIYLGSKRASGVPDRFSGSGSGTDFTLRISRVEANDTGVYYCMQGLQSPLTFGQGTKLEIKR
notes: as for B1
B12: TB640_005 Fab-SASA VH-Y110L (Fab, V domains shown)
VH: EVQLVESGGDLVKPGGSLRLSCVASGFTFRDYAMTWVRQAPGKGLQWVSLISGSGGKTYYADAVKGRFTISRDNAKNTLYLQMNSLRAEDTAVYYCAVDRLTKTIRPQYLGLWVWGQGTLVTVSS
VL: DIVMTQTPLSLSVSPGETASISCRSSQSLLYSIGYNYLDWYLQKPGQSPQGLIYLGSKRASGVPDRFSGSGSGTDFTLRISRVEANDTGVYYCMQGLQSPLTFGQGTKLEIKR
notes: as for B1
B13: TB640_005 Fab-SASA VH-V114H (Fab, V domains shown)
VH: EVQLVESGGDLVKPGGSLRLSCVASGFTFRDYAMTWVRQAPGKGLQWVSLISGSGGKTYYADAVKGRFTISRDNAKNTLYLQMNSLRAEDTAVYYCAVDRLTKTIRPQYYGLWHWGQGTLVTVSS
VL: DIVMTQTPLSLSVSPGETASISCRSSQSLLYSIGYNYLDWYLQKPGQSPQGLIYLGSKRASGVPDRFSGSGSGTDFTLRISRVEANDTGVYYCMQGLQSPLTFGQGTKLEIKR
notes: as for B1
B14: TB640_005 Fab-SASA VH-T28P (Fab, V domains shown)
VH: EVQLVESGGDLVKPGGSLRLSCVASGFPFRDYAMTWVRQAPGKGLQWVSLISGSGGKTYYADAVKGRFTISRDNAKNTLYLQMNSLRAEDTAVYYCAVDRLTKTIRPQYYGLWVWGQGTLVTVSS
VL: DIVMTQTPLSLSVSPGETASISCRSSQSLLYSIGYNYLDWYLQKPGQSPQGLIYLGSKRASGVPDRFSGSGSGTDFTLRISRVEANDTGVYYCMQGLQSPLTFGQGTKLEIKR
notes: as for B1
B15: TB640_005 Fab-SASA VH-L50M (Fab, V domains shown)
VH: EVQLVESGGDLVKPGGSLRLSCVASGFTFRDYAMTWVRQAPGKGLQWVSMISGSGGKTYYADAVKGRFTISRDNAKNTLYLQMNSLRAEDTAVYYCAVDRLTKTIRPQYYGLWVWGQGTLVTVSS
VL: DIVMTQTPLSLSVSPGETASISCRSSQSLLYSIGYNYLDWYLQKPGQSPQGLIYLGSKRASGVPDRFSGSGSGTDFTLRISRVEANDTGVYYCMQGLQSPLTFGQGTKLEIKR
notes: as for B1
B16: TB640_005 Fab-SASA VH-L50F (Fab, V domains shown)
VH: EVQLVESGGDLVKPGGSLRLSCVASGFTFRDYAMTWVRQAPGKGLQWVSFISGSGGKTYYADAVKGRFTISRDNAKNTLYLQMNSLRAEDTAVYYCAVDRLTKTIRPQYYGLWVWGQGTLVTVSS
VL: DIVMTQTPLSLSVSPGETASISCRSSQSLLYSIGYNYLDWYLQKPGQSPQGLIYLGSKRASGVPDRFSGSGSGTDFTLRISRVEANDTGVYYCMQGLQSPLTFGQGTKLEIKR
notes: as for B1
B17: TB640_005 Fab-SASA VH-L112M (Fab, V domains shown)
VH: EVQLVESGGDLVKPGGSLRLSCVASGFTFRDYAMTWVRQAPGKGLQWVSLISGSGGKTYYADAVKGRFTISRDNAKNTLYLQMNSLRAEDTAVYYCAVDRLTKTIRPQYYGMWVWGQGTLVTVSS
VL: DIVMTQTPLSLSVSPGETASISCRSSQSLLYSIGYNYLDWYLQKPGQSPQGLIYLGSKRASGVPDRFSGSGSGTDFTLRISRVEANDTGVYYCMQGLQSPLTFGQGTKLEIKR
notes: as for B1

Biological target: T1, Extracellular domain (ECD) of the …
Experiment: SPR, Fab-SASA captured on BSA;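 also: biacore T200 SPR, Fab-SASA variants from E. coli conditioned medium captured on BSA-coated CM5 chip, canine IL-4RA injected 120 s then 420 s dissociation, 1:1 model fit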
Experimental: Forty-four PML clones were selected from each library for expression in E. coli in 96 deep-well plates by inoculating into 2YT medium and inducing with 0.2 mM IPTG overnight at room temperature. The Fab secreted in the medium was analyzed for binding activity by completing an ELISA. […] The 39 unique clones were confirmed by an off-rate screening assay in an SPR assay performed on a Biacore T200. For the SPR analyses, bovine serum albumin (BSA) was immobilized to CM5 sensor chip. The sensor chip surface was activated with 50 mmol/L H-Hydroxysuccinimide and 200 mmol/L 1-ethyl-3-(3-dimethylaminopropyl) carbodiimide hydrochloride for 420 s. Afterwards, BSA diluted in 10 mM sodium acetate, pH 4.5 was injected. After the amine coupling reaction, the remaining active coupling sites on the chip surface were blocked with 1 mM ethanolamine hydrochloride. The selected Fab-SASA variants in conditioned medium were captured on the BSA-coated chips. The running buffer was HBS-EP (10 mM HEPES 500 mM NaCl, 3 mM EDTA, 0.05% Tween 20, pH 7.4). After equilibration, canine IL-4RA was injected for 120 seconds (association phase) followed by the injection of running buffer for 420 sec (dissociation phase). The off-rates of the Fab-SASA clones were obtained from fitting the experimental data locally to a 1:1 interaction model using the Biacore T200 evaluation software.

Point of comparison: B11, Kd 9.6 nM. Against it:
- B1 — 1.9-fold higher, 18.6 nM
- B2 — 5.2-fold lower, 1.83 nM
- B3 — within 1.5-fold, 7.1 nM
- B4 — within 1.5-fold, 11.3 nM
- B5 — 1.8-fold lower, 5.41 nM
- B6 — within 1.5-fold, 7.13 nM
- B7 — within 1.5-fold, 7.73 nM
- B8 — 1.6-fold lower, 5.97 nM
- B9 — 2.7-fold lower, 3.5 nM
- B10 — within 1.5-fold, 7.16 nM
- B12 — within 1.5-fold, 6.65 nM
- B13 — 1.8-fold lower, 5.47 nM
- B14 — within 1.5-fold, 8.95 nM
- B15 — within 1.5-fold, 8.5 nM
- B16 — 1.6-fold higher, 15 nM
- B17 — within 1.5-fold, 13.7 nM

Point of comparison: B7, “Ratio WT-kd/clone-kd” value 1.34. Against it:
- B1 — lower, 0.99
- B2 — higher, 7.88
- B3 — higher, 1.53
- B4 — lower, 1.22
- B5 — lower, 0.98
- B6 — higher, 1.5
- B8 — lower, 1.33
- B9 — higher, 1.47
- B10 — higher, 1.41
- B11 — lower, 0.62
- B12 — lower, 0.71
- B13 — higher, 1.62
- B14 — lower, 1.21
- B15 — lower, 0.79
- B16 — lower, 0.49
- B17 — higher, 1.97

Point of comparison: B5, koff 0.000974 s⁻¹. Against it:
- B1 — within 1.5-fold, 0.000967 s⁻¹
- B2 — 8.7-fold lower, 0.000112 s⁻¹
- B3 — 1.6-fold lower, 0.000623 s⁻¹
- B4 — within 1.5-fold, 0.00078 s⁻¹
- B6 — 1.5-fold lower, 0.000636 s⁻¹
- B7 — within 1.5-fold, 0.000713 s⁻¹
- B8 — within 1.5-fold, 0.000717 s⁻¹
- B9 — 1.5-fold lower, 0.000647 s⁻¹
- B10 — within 1.5-fold, 0.000674 s⁻¹
- B11 — 1.6-fold higher, 0.00153 s⁻¹
- B12 — within 1.5-fold, 0.00135 s⁻¹
- B13 — 1.7-fold lower, 0.000589 s⁻¹
- B14 — within 1.5-fold, 0.000786 s⁻¹
- B15 — within 1.5-fold, 0.0012 s⁻¹
- B16 — 2-fold higher, 0.00193 s⁻¹
- B17 — 2-fold lower, 0.000483 s⁻¹

Point of comparison: B4, kon 69200 M⁻¹ s⁻¹. Against it:
- B1 — within 1.5-fold, 51900 M⁻¹ s⁻¹
- B2 — within 1.5-fold, 66200 M⁻¹ s⁻¹
- B3 — within 1.5-fold, 87800 M⁻¹ s⁻¹
- B5 — 2.6-fold higher, 180000 M⁻¹ s⁻¹
- B6 — within 1.5-fold, 89200 M⁻¹ s⁻¹
- B7 — within 1.5-fold, 92300 M⁻¹ s⁻¹
- B8 — 1.7-fold higher, 120000 M⁻¹ s⁻¹
- B9 — 2.7-fold higher, 185000 M⁻¹ s⁻¹
- B10 — within 1.5-fold, 94100 M⁻¹ s⁻¹
- B11 — 2.3-fold higher, 159000 M⁻¹ s⁻¹
- B12 — 2.9-fold higher, 202000 M⁻¹ s⁻¹
- B13 — 1.6-fold higher, 108000 M⁻¹ s⁻¹
- B14 — within 1.5-fold, 87800 M⁻¹ s⁻¹
- B15 — 2-fold higher, 141000 M⁻¹ s⁻¹
- B16 — 1.8-fold higher, 128000 M⁻¹ s⁻¹
- B17 — 2-fold lower, 35300 M⁻¹ s⁻¹

From patent US20250188176A1 (INVETX, published 2025)
